{
  "source": "patent US10052364B2",
  "about": "“Osteocalcin as a treatment for cognitive disorders” (THE TRUSTEES OF COLUMBIA UNIVERSITY IN THE CITY OF NEW YORK, priority 2013, dated 2018)",
  "molecules": {"B1": {"name": "uncarboxylated osteocalcin: Recombinant osteocalcin bacterially produced, cleaved from the GST subunit; completely undercarboxylated at all three sites (protein, listed as Homo sapiens)", "chain": "MRALTLLALLALAALCIAGQAGAKPSGAESSKGAAFVSKQEGSEVVKRPRRYLYQWLGAPVPYPDPLEPRREVCELNPDCDELADHIGFQEAYRRFYGPV", "modifications": "uncarboxylated", "notes": "Recombinant osteocalcin bacterially produced, cleaved from the GST subunit; completely undercarboxylated at all three sites"}},
  "key": {"[1]": {"system": "Osteocalcin-/- mice born from Osteocalcin-/- mothers", "test": "Osteocalcin injections in pregnant Osteocalcin-/- mothers (E0.5-E18.5): offspring behavior and brain histology", "type": "in vivo, mouse", "description": "FIG. 7. Maternal osteocalcin determines spatial learning and memory in adult offspring. (A-F) DLT (A), EPMT (B), OFT (C), FST (D), TST (E), and MWMT (F) performed in 3-month-old Ocn^−/− mice born from Ocn^−/− mothers injected once a day with vehicle or osteocalcin (240 ng/day) during pregnancy compared to WT mice. (G) Surface of the lateral ventricle over brain area (%) of E18.5 hippocampi coronal sections of WT embryos originating from WT mothers and Ocn^−/− embryos originating from osteocalcin-injected Ocn^−/− mothers. (H) Number of apoptotic cells (stained by TUNEL assay) of E18.5 hippocampi coronal sections of WT embryos originating from WT mothers and Ocn^−/− embryos originating from Ocn^−/− mothers injected with osteocalcin (240 ng/day). (I) Cresyl violet, NeuN immunofluorescence, and dentate gyms area (% versus WT) of WT and Ocn^−/− embryos originating from osteocalcin-injected Ocn^−/− mothers. Scale bars=0.5 mm.\nOsteocalcin^−/−, Gprc6a^−/−, Osteocalcin-mCherry, and Osteocalcin floxed mice have been previously described (Ducy et al., 1996, Nature 382:448-452; Oury et al., 2011, Cell 144:796-809). Mouse genotypes were determined by PCR. For all experiments, controls were littermate female WT, Cre-expressing, or flox/flox. All mice were maintained on a pure 129-Sv genetic background except for the inducible deletion Osteocalcin model (mix background: 25% C57/BL6 and 75% 129sv). For inducible gene deletion mice, tamoxifen was prepared in corn oil and injected intraperitoneally (IP) (1 mg/20 g of body weight) over one week. For osteocalcin delivery to pregnant mice, IP injections (240 ng/day) were performed as soon as a plug was present daily until delivery (E0.5-E18.5). For osteocalcin or leptin infusion in adult Osteocalcin^−/− or ob/ob mice, pumps (Alzet micro-osmotic pump, Model 1002) delivering osteocalcin (300 ng/hr), leptin (50 ng/hr), or vehicle were surgically installed subcutaneously in the backs of 3-month old mice. For the postnatal rescue of cognitive functions in Osteocalcin^−/− mice, osteocalcin (10 ng/hour) or vehicle were delivered intrasubventricularly (icy) as previously described (Ducy et al., 2000, Cell 100:197-207). Leptin and osteocalcin content in sera and tissues were determined by ELISA.\nCresyl violet staining to visualize brain morphology was carried out by incubating 20 μm cryosections defatted with 1:1 chloroform:ethanol in cresyl violet acetate (1 g/L) overnight. The stain was differentiated using ethanol and xylene and mounted using DPX mounting medium for histology (Sigma).\nTo assess apoptosis in WT and Osteocalcin^−/− brains, 20 μm cryostat sections were processed using the APOPTAG® Fluorescein Direct In Situ Apoptosis Detection Kit (Millipore) according to manufacturer's protocol. Images were obtained using Leica DM 4000B, and Image J was used to quantify cell number and intensity of staining.\nFor western blotting, frozen hippocampi from E18.5 embryos were lysed and homogenized in 250 μl tissue lysis buffer (25 mM Tris HCl 7.5; 100 mM NaF; 10 mM Na4P2O7; 10 mmM EDTA; 1% NP 40). Samples were pooled together in threes by genotype to reduce variability. Proteins were transferred to nitrocellulose membranes and blocked with TBST-5% milk prior to overnight incubation with primary antibody in TBST-5% BSA. HRP-coupled secondary antibodies and ECL were used to visualize the signal.\nTo further evaluate the importance of maternal osteocalcin for the acquisition of spatial learning and memory in adult offspring, pregnant Osteocalcin^−/− mothers from E0.5 to E18.5 were treated with injections, once a day, of osteocalcin (240 ng/day). Osteocalcin was never injected in these females or their pups after delivery. […] Likewise, the number of apoptotic cells was reduced and the number of NeuN positive cells was increased compared to Osteocalcin^−/− embryos originating from Osteocalcin^−/− mothers that were not injected (FIG. 7I-J)."}, "[2]": {"system": "mouse primary hindbrain neurons (MPHN)", "test": "Gene expression in cultured mouse primary hindbrain neurons", "type": "cell-based", "conditions": "osteocalcin 3 ng/ml, 2 or 4 hours, WT and Gprc6a-/-", "description": "For gene expression studies, RNA was isolated from primary neurons or tissue using TRIZOL® (Invitrogen). cDNA synthesis was performed following a standard protocol from Invitrogen and qPCR analyses were done using specific quantitative PCR primers from SABiosciences (www.sabiosciences.com/RT2PCR.php).\nFor primary culture of hindbrain neurons, E14.5 embryos were obtained from matings of 129-Sv WT mice. Hindbrains were dissected out and collected in ice-cold filter sterilized HBSS buffered with 10 mM HEPES until dissection was complete, at which point they were finely chopped into 2 mm cubes, dissociated by trituration with a fire-polished Pasteur pipette and spun down at 4° C. Cells were then plated onto poly-D-lysine coated coverslips or dishes in Neurobasal medium supplemented with 2% B27, 0.25 mM Glutamax, 0.25 mM L-glutamine, penicillin G (50 U/ml), and streptomycin sulphate ([…]). Cultures were fed every 3-6 days with one half replacement medium without L-glutamine.\nTo determine if osteocalcin acts directly on neurons to modulate neurotransmitter synthesis, several types of assays were performed. First, brainstem and midbrain explants from WT and Gprc6a^−/− mice were generated. […] Third, to further confirm that osteocalcin signals in neurons of the hindbrain, calcium flux in MPHN treated with undercarboxylated or carboxylated osteocalcin (FIG. 3F) was measured. […]"}, "[3]": {"conditions": "240 ng/day once a day to pregnant Osteocalcin-/- mothers, E0.5 to E18.5"}},
  "data": [
    {"molecule": "B1", "values": [
      {"measurement": "anxiety or depression phenotypes of adult offspring", "setting": "[1]; [3]", "result": "did not have any beneficial effect"},
      {"measurement": "deficit in learning and memory of adult offspring", "setting": "[1]; [3]", "result": "rescued over two third of their deficit"},
      {"measurement": "cerebral ventricle enlargement in brains of E18.5 Osteocalcin-/- embryos (cresyl violet)", "setting": "[1]; injection of the pregnant Osteocalcin-/- mothers, 240 ng/day", "result": "rescue of the cerebral ventricle enlargement"},
      {"measurement": "thickness defect in the CA3 and CA4 regions of the hippocampus in adult Osteocalcin-/- offspring", "setting": "[1]; mothers injected during pregnancy", "result": "rescue of the thickness defect"},
      {"measurement": "number of NeuN positive cells", "setting": "[1]; versus embryos from Osteocalcin-/- mothers not injected", "result": "increased"},
      {"measurement": "number of apoptotic cells in E18.5 embryo hippocampus", "setting": "[1]; versus embryos from Osteocalcin-/- mothers not injected, listed as Uncarboxylated osteocalcin", "result": "prevent this neuronal apoptosis"},
      {"measurement": "number of apoptotic cells in E18.5 embryo hippocampus", "setting": "[1]; versus embryos from Osteocalcin-/- mothers not injected, listed as osteocalcin", "result": "reduced"},
      {"measurement": "Caspase-3 cleaved protein level in hippocampus of E18.5 embryos (Western blot)", "setting": "[1]; versus embryos from mothers not injected", "result": "decrease"},
      {"measurement": "GA' expression decrease in primary brainstem neuronal culture", "setting": "[2]", "result": 65, "unit": "%"},
      {"measurement": "Tph2 expression in primary brainstem neuronal culture", "setting": "[2]", "result": "increased more than three-fold"}
    ]}
  ]
}
